Experimental findings from IntAct's records for PubMed 29039417 are described below.

Sequences and labels used below:
B1: BBSome-interacting protein 1 (Homo sapiens), A8MTZ0 (parent)
chain: MLKAAAKRPELSGKNTISNNSDMAEVKSMFREVLPKQGPLFVEDIMTMVLCKPKLLPLKSLTLEKLEKMHQAAQNTIRQQEMAEKDQRQITH
partner: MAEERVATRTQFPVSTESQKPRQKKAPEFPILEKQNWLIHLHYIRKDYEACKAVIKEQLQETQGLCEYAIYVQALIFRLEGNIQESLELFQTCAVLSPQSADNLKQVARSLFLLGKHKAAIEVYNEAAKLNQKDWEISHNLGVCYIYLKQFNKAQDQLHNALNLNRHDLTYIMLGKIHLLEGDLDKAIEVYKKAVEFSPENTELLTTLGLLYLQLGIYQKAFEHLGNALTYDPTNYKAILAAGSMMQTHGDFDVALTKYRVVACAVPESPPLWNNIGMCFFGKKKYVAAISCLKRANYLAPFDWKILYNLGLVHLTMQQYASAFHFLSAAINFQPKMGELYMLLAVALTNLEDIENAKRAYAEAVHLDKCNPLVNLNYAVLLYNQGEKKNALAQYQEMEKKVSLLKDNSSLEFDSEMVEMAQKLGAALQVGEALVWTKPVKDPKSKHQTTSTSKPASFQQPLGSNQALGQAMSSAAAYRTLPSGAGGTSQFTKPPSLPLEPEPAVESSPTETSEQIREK

The variants in the test derive from B1. The settings on record: with bbs4_human BBS4, Q96RK4.
MLKAAAKRPELSGKNTISNNSDMAEVKSMFREVLPKQGPLFVEDIMTMVLCKPKLLPLKSLTLEKLEKAHQAAQNTIRQQEMAEKDQRQITH [M69A]: the “effect of a mutation on the interaction” value was “with no effect”.

For MLKAAAKRPELSGKNTISNNSDMAEVKSMFREVLPKQGPLFVEDIMTMVLCKPKLLPLKSLTLEKLEKKHQAAQNTIRQQEMAEKDQRQITH [M69K], the “effect of a mutation on the interaction” value is on record as “with no effect”.

MLKAAAKRPELSGKNTISNNSDMAEVKSMFREVLPKQGPLFVEDIMTMVLCKPKLLPLKSLTLEKLEKEHQAAQNTIRQQEMAEKDQRQITH [M69E]: the “effect of a mutation on the interaction” value was “with no effect”.

As for MLKAAAKRPELSGKNTISNNSDMAEVKSMFREVLPKQGPLFVEDIMTMVLCKPKLLPLKSLTLEALEKMHQAAQNTIRQQEMAEKDQRQITH [K65A], the “effect of a mutation on the interaction” value is “with no effect”.

In the case of MLKAAAKRPELSGKNTISNNSDMAEVKSMFREVLPKQGPLFVEDIMTMVLCKPKLLPLKSLTLEELEKMHQAAQNTIRQQEMAEKDQRQITH [K65E], the “effect of a mutation on the interaction” value is on record as “with no effect”.

For MLKAAAKRPELSGKNTISNNSDMAEVKSMFREVLPKQGPLFVEDIMTMVLCKPKLLPLKSLTLEKLEKMTQAAQNTIRQQEMAEKDQRQITH [H70T], the “effect of a mutation on the interaction” value is listed as “disrupting interaction strength”.

For the variant MLKAAAKRPELSGKNTISNNSDMAEVKSMFREVLPKQGPLFVEDIMTMVLCKPKLLPLKSLTLEKLEKMEQAAQNTIRQQEMAEKDQRQITH [H70E], the “effect of a mutation on the interaction” value was “with no effect”.

MLKAAAKRPELSGKNTISNNSDMAEVKSMFREVLPKQGPLFVEDIMTMVLCKPKLLPLKSLTLEKLEKMAQAAQNTIRQQEMAEKDQRQITH [H70A]: the “effect of a mutation on the interaction” value is recorded as “with no effect”.

As to MLKAAAKRPELSGKNTISNNSDMAEVKSMFREVLPKQGPLFVEDIMTMVLCKPKLLPLKSLTLEKLEKMKQAAQNTIRQQEMAEKDQRQITH [H70K], the “effect of a mutation on the interaction” value is recorded as “with no effect”.

Consider MLKAAAKRPELSGKNTISNNSDMAEVKSMFREVLPKQGPLFVEDIMTMVLCKPKLLKLKSLTLEKLEKMHQAAQNTIRQQEMAEKDQRQITH [P57K], for which the “effect of a mutation on the interaction” value is recorded as “with no effect”.

In the case of MLKAAAKRPELSGKNTISNNSDMAEVKSMFREVLPKQGPLFVEDIMTMVLCKPKLLRLKSLTLEKLEKMHQAAQNTIRQQEMAEKDQRQITH [P57R], the “effect of a mutation on the interaction” value was “disrupting interaction strength”.

As to MLKAAAKRPELSGKNTISNNSDMAEVKSMFREVLPKQGPLFVEDIMTMVLCKPKLLELKSLTLEKLEKMHQAAQNTIRQQEMAEKDQRQITH [P57E], the “effect of a mutation on the interaction” value is “with no effect”.

Consider MLKAAAKRPELSGKNTISNNSDMAEVKSMFREVLPKQGPLFVEDIMTMVLCKPKLLALKSLTLEKLEKMHQAAQNTIRQQEMAEKDQRQITH [P57A], for which the “effect of a mutation on the interaction” value is given as “with no effect”.

Turning to MLKAAAKRPELSGKNTISNNSDMAEVKSMFREVLPKQGPLFVEDIMTMVLCKPKLFPLKSLTLEKLEKMHQAAQNTIRQQEMAEKDQRQITH [L56F], the “effect of a mutation on the interaction” value is listed as “disrupting interaction strength”.

Regarding MLKAAAKRPELSGKNTISNNSDMAEVKSMFREVLPKQGPLFVEDIMTMVLCKPKLAPLKSLTLEKLEKMHQAAQNTIRQQEMAEKDQRQITH [L56A], the “effect of a mutation on the interaction” value was “with no effect”.

With MLKAAAKRPELSGKNTISNNSDMAEVKSMFREVLPKQGPLFVEDIMTMVLCKPKLKPLKSLTLEKLEKMHQAAQNTIRQQEMAEKDQRQITH [L56K], the “effect of a mutation on the interaction” value is “with no effect”.

For the variant MLKAAAKRPELSGKNTISNNSDMAEVKSMFREVLPKQGPLFVEDIMTMVLCKPKLEPLKSLTLEKLEKMHQAAQNTIRQQEMAEKDQRQITH [L56E], the “effect of a mutation on the interaction” value is on record as “with no effect”.

For MLKAAAKRPELSGKNTISNNSDMAEVKSMFREVLPKQGPLFVEDIMTMVLCKPKLLPLKSLTLAKLEKMHQAAQNTIRQQEMAEKDQRQITH [E64A], the “effect of a mutation on the interaction” value is reported as “with no effect”.

On to MLKAAAKRPELSGKNTISNNSDMAEVKSMFREVLPKQGPLFVEDIMTMVLCKPKLLPLKSLTLKKLEKMHQAAQNTIRQQEMAEKDQRQITH [E64K], for which the “effect of a mutation on the interaction” value is recorded as “with no effect”.

For MLKAAAKRPELSGKNTISNNSDMAEVKSMFREVLPKQGPLFVEDIMTMVLCKPKLLPLKSLTLEKLEAMHQAAQNTIRQQEMAEKDQRQITH [K68A], the “effect of a mutation on the interaction” value is recorded as “with no effect”.

As for MLKAAAKRPELSGKNTISNNSDMAEVKSMFREVLPKQGPLFVEDIMTMVLCKPKLLPLKSLTLEKLEEMHQAAQNTIRQQEMAEKDQRQITH [K68E], the “effect of a mutation on the interaction” value is listed as “with no effect”.

Regarding MLKAAAKRPELSGKNTISNNSDMAEVKSMFREVLPKQGPLFVEDIMTMVLCKPKLLPKKSLTLEKLEKMHQAAQNTIRQQEMAEKDQRQITH [L58K], the “effect of a mutation on the interaction” value is “with no effect”.

In the case of MLKAAAKRPELSGKNTISNNSDMAEVKSMFREVLPKQGPLFVEDIMTMVLCKPKLLPEKSLTLEKLEKMHQAAQNTIRQQEMAEKDQRQITH [L58E], the “effect of a mutation on the interaction” value was “with no effect”.

Take MLKAAAKRPELSGKNTISNNSDMAEVKSMFREVLPKQGPLFVEDIMTMVLCKPKLLPAKSLTLEKLEKMHQAAQNTIRQQEMAEKDQRQITH [L58A]: the “effect of a mutation on the interaction” value was “with no effect”.

With MLKAAAKRPELSGKNTISNNSDMAEVKSMFREVLPKQGPLFVEDIMTMVLCKPKLLPLKELTLEKLEKMHQAAQNTIRQQEMAEKDQRQITH [S60E], the “effect of a mutation on the interaction” value is on record as “with no effect”.

Regarding MLKAAAKRPELSGKNTISNNSDMAEVKSMFREVLPKQGPLFVEDIMTMVLCKPKLLPLKKLTLEKLEKMHQAAQNTIRQQEMAEKDQRQITH [S60K], the “effect of a mutation on the interaction” value is “with no effect”.
